One data set has as its target Srs2 (Saccharomyces cerevisiae (yeast), UniProt P12954 1-1174). In words: pull-down; 200 nM ssDNA; Pull-down: 42 mM Tris-HCl pH 7.5, 15 mM KCl, 90 mM NaCl, 2 mM ATP, 1 mM EDTA, 0.5% NP-40, 1 mM DTT, 20 ug/mL BSA, 5% glycerol, 37 C; EMSA: 42 mM MOPS pH 7.2, 3. The following applies: protein: recombinant; tags: GST (pGEX-6p-1); label: 5'-biotin. Background: In EMSA bound probe runs differently from free probe, usually more slowly.

In a further data set the target is RNF20N (Homo sapiens, UniProt Q5VTR2 1-300). Briefly: pull-down; RNF20N alone; Pull-down: 42 mM Tris-HCl pH 7.5, 15 mM KCl, 90 mM NaCl, 2 mM ATP, 1 mM EDTA, 0.5% NP-40, 1 mM DTT, 20 ug/mL BSA, 5% glycerol, 37 C; EMSA: 42 mM MOPS pH 7.2, 3. The following applies: protein: recombinant; tags: GST (pGEX-6p-1); label: 5'-biotin.
RNF20N, sequence (Q5VTR2 1-300): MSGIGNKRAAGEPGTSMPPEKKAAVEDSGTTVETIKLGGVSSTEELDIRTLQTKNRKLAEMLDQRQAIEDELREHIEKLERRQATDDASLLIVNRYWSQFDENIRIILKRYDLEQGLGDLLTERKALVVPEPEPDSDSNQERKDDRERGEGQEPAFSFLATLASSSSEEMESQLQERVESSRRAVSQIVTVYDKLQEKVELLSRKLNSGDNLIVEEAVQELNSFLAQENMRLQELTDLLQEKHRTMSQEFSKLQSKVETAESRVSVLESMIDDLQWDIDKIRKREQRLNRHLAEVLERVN
For another data set, the target named is Rad51;Bre1 (Saccharomyces cerevisiae …, UniProt P25454;Q07457 1-400;1-700, |). In words: pull-down; ATP; Bre1 stimulates Rad51 binding and is co-captured; Pull-down: 42 mM Tris-HCl pH 7.5, 15 mM KCl, 90 mM NaCl, 2 mM ATP, 1 mM EDTA, 0.5% NP-40, 1 mM DTT, 20 ug/mL BSA, 5% glycerol, 37 C; EMSA: 42 mM MOPS pH 7.2, 3. The following applies: protein: recombinant;recombinant; tags: 6xHis (pET30a) or GST-cleaved;6xHis; label: 5'-biotin.
Rad51;Bre1, sequence (P25454 whole entry, one chain of several): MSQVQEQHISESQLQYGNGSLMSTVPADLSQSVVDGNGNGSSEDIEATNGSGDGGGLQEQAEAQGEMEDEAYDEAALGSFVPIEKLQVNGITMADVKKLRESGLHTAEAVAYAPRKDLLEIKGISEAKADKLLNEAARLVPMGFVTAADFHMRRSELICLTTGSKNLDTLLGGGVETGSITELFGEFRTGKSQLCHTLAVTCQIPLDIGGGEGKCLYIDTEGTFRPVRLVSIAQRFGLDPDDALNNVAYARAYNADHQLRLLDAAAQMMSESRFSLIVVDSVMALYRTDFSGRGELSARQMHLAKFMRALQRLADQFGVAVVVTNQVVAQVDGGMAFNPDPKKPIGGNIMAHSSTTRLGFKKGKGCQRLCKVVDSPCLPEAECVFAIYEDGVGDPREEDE

Another data set addresses hRad51;RNF20N (Homo sapiens;Homo sapiens, UniProt Q06609;Q5VTR2 1-339;1-300, |). In words: pull-down; ATP; RNF20N stimulates hRad51 binding and is co-captured; Pull-down: 42 mM Tris-HCl pH 7.5, 15 mM KCl, 90 mM NaCl, 2 mM ATP, 1 mM EDTA, 0.5% NP-40, 1 mM DTT, 20 ug/mL BSA, 5% glycerol, 37 C; EMSA: 42 mM MOPS pH 7.2, 3. The following applies: protein: recombinant;recombinant; tags: 6xHis or GST-cleaved;GST (pGEX-6p-1); label: 5'-biotin.

A further data set has as its target Rad51 (Saccharomyces cerevisiae (yeast), UniProt P25454 1-400). Briefly: pull-down; ATP; Pull-down: 42 mM Tris-HCl pH 7.5, 15 mM KCl, 90 mM NaCl, 2 mM ATP, 1 mM EDTA, 0.5% NP-40, 1 mM DTT, 20 ug/mL BSA, 5% glycerol, 37 C; EMSA: 42 mM MOPS pH 7.2, 3. The following applies: protein: recombinant; tags: 6xHis (pET30a) or GST-cleaved; label: 5'-biotin.
In the next data set the target is hRad51 (Homo sapiens, UniProt Q06609 1-339). Described as above. The following applies: protein: recombinant; tags: 6xHis or GST-cleaved; chain copies: 10; label: 5'-biotin.
hRad51, sequence (Q06609 whole entry): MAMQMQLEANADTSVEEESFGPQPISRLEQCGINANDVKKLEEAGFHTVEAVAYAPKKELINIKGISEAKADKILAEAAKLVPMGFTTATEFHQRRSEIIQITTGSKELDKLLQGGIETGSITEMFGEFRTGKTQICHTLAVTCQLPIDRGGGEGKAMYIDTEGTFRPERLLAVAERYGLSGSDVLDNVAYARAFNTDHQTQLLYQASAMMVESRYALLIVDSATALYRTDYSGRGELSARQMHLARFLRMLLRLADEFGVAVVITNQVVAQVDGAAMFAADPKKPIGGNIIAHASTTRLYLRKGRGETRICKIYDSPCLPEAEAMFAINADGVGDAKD
Another data set has as its target T1, Bre1 (Saccharomyces cerevisiae (yeast), UniProt Q07457 1-700).
T1 sequence: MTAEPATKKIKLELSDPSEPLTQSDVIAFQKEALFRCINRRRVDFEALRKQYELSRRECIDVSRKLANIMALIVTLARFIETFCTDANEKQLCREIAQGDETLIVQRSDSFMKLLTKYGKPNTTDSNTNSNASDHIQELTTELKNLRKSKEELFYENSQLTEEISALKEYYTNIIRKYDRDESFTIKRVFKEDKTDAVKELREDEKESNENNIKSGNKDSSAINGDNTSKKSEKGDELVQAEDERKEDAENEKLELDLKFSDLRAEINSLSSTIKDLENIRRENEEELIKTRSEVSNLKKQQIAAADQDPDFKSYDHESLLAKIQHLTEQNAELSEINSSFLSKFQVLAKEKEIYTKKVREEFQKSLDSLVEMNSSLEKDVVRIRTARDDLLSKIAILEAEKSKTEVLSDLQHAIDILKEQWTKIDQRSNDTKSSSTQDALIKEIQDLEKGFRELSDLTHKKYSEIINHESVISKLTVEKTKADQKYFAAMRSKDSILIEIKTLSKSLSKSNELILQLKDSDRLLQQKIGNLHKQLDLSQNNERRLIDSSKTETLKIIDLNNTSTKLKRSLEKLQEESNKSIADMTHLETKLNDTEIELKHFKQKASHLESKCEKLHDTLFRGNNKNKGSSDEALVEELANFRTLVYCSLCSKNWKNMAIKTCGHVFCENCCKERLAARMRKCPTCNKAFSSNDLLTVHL
Briefly: pull-down; Bre1 alone; Pull-down: 42 mM Tris-HCl pH 7.5, 15 mM KCl, 90 mM NaCl, 2 mM ATP, 1 mM EDTA, 0.5% NP-40, 1 mM DTT, 20 ug/mL BSA, 5% glycerol, 37 C; EMSA: 42 mM MOPS pH 7.2, 3. The following applies: protein: recombinant; tags: 6xHis; label: 5'-biotin.

Rad51, sequence (P25454 whole entry): as the sequence (P25454 whole entry, one chain of several) above
hRad51;RNF20N, sequence (Q06609 whole entry, chain 1 of 2): as the sequence (Q06609 whole entry) above
hRad51;RNF20N, sequence (Q5VTR2 1-300, chain 2 of 2): as the sequence (Q5VTR2 1-300) above
Srs2, sequence (P12954 whole entry): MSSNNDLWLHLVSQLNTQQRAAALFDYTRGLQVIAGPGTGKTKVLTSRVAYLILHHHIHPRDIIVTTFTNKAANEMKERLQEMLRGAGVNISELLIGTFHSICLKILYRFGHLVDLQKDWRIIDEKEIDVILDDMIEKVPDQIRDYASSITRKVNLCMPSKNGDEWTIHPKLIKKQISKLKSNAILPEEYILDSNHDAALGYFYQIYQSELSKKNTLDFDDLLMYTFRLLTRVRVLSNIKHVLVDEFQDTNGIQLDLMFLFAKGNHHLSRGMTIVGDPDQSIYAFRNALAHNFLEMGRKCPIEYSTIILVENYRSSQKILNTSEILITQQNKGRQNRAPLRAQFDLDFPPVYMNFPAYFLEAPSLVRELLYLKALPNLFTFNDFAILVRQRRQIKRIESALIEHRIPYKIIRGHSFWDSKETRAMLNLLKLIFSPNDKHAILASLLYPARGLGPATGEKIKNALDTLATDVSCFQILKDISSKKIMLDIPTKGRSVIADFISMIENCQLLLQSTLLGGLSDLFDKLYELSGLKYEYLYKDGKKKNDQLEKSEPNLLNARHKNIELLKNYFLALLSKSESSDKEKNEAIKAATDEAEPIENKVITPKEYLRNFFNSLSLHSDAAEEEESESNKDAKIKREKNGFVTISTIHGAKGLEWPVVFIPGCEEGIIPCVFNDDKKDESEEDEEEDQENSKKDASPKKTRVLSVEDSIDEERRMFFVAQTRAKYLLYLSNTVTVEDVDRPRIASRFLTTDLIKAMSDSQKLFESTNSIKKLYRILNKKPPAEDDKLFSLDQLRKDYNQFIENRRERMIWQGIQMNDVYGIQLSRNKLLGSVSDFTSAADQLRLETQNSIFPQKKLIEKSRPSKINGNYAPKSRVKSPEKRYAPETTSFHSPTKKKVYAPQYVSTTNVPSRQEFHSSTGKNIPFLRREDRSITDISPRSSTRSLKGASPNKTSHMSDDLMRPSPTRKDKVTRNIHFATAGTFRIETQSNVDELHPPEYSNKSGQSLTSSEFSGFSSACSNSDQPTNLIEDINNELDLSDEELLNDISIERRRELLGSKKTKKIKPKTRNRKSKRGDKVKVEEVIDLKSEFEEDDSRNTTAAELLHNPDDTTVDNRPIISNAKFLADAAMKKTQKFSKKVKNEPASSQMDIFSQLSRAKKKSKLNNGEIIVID

B1: 90-nt ssDNA (ssDNA)
DNA: CGACAGGTCATGGCCGTACATGATATCCTCGAGCGTCCTGTTGCAACTTACACTCTGAATAGCCGAATTCTTAGGGTTAGGGTTAACA
For B1, the binding result with Srs2 was “binds”; in the data set with RNF20N, “no binding”; with Rad51;Bre1, “binds”; in the data set with hRad51;RNF20N, “binds”; in the data set with Rad51, “binds”; with hRad51 it was “binds”. Besides, in the data set with Bre1, the binding result is reported as “no binding”.

Source of the values: PMC10213050 (Nature Communications, 2023).
